Measured values: the supplement of paper PMC6757056
± gives the standard deviation of the averaged measurements.

B1: library; a variant is named by its letters at N, in order (parent)
chain: GCUGUCACCGGUGCUUGGUACGUUAUAUUCAGCCGGUCUGAUGAGUCUNNNNNNAGACGAAACAGC

Columns and labels:
(6R,S)-folinic acid [1] = variants of: B1; experiment: FACS-Seq fitted mean relative fluorescence mCherry/BFP without ligand (log10 relative fluorescence); HEK293T overexpressing SLC46A1; higher = higher reporter protein expression; details: without (6R,S)-folinic acid; ligand present: no
Summary of the method: (§1)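 An mCherry reporter containing the ribozyme switch and an EF1α-BFP marker were introduced by lentivirus into HEK293T libraries. Cells were enriched, incubated 48 h with or without ligand, sorted into 6 bins by mCherry/BFP, and bin genomic DNA was PCR-amplified, barcoded and sequenced on MiSeq. Fluorescence represents the normalized fitted normal mean of the bin counts. Fitting was done on log10(mCherry/BFP), scaling to five spiked-in control ribozymes.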

(6R,S)-folinic acid [2] = variants of: B1; experiment: normalized RNA/DNA level without ligand (relative to sTRSVctl = 100) (log10 (% of sTRSVctl)); HEK293T overexpressing SLC46A1; higher = less ribozyme self-cleavage, higher mRNA level; details: without (6R,S)-folinic acid; ligand present: no
Summary of the method: (§2)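 Only sequences with at least 100 DNA reads were analyzed, from HEK293T cells transfected with 4 µg per 6-well well of ribozyme switch library plasmids 72 h before RNA extraction with EDTA. Any ligand was added 1 h before transfection. RNA level was defined as RNA over DNA reads, normalized to a spiked-in non-cleaving sequence or to the top sequences, then scaled and log-transformed. The top set was 25 sequences, and the scaling was ×100 followed by log10.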

(6R,S)-folinic acid [3] = variants of: B1; experiment: FACS-Seq fitted mean relative fluorescence mCherry/BFP with ligand (log10 relative fluorescence); HEK293T overexpressing SLC46A1; ligand concentration (+) FACS-Seq: 6 mM; higher = higher reporter protein expression; details: with (6R,S)-folinic acid; ligand present: yes
Summary of the method: as §1

(6R,S)-folinic acid [4] = variants of: B1; experiment: normalized RNA/DNA level with ligand (relative to sTRSVctl = 100) (log10 (% of sTRSVctl)); HEK293T overexpressing SLC46A1; ligand concentration (+) RNA-Seq: 6 mM; higher = less ribozyme self-cleavage, higher mRNA level; details: with (6R,S)-folinic acid; ligand present: yes
Summary of the method: as §2

Variant	FACS-Seq fitted mean (log10) ((6R,S)-folinic acid [1])	normalized RNA/DNA level without ligand (log10) ((6R,S)-folinic acid [2])	FACS-Seq fitted mean (log10) ((6R,S)-folinic acid [3])	normalized RNA/DNA level with ligand (log10) ((6R,S)-folinic acid [4])
GUUCCA	0.262 ± 0.14	2.0222 ± 0.00044	0.191 ± 0.16	2.03 ± 0.054
GUUGUG	0.391 ± 0.14	1.879 ± 0.0056	0.458 ± 0.072	2.01 ± 0.023
GUUGUA	0.281 ± 0.083	1.962 ± 0.011	0.415 ± 0.15	1.97 ± 0.05
UAAACC		2.006 ± 0.0033		2.01 ± 0.043
UAAACA		1.96 ± 0.02		1.994 ± 0.016
UAAACU		2.008 ± 0.013		2.02 ± 0.058
UUUGAA	0.0652 ± 0.029	1.918 ± 0.0086	0.135 ± 0.075	1.98 ± 0.042
UUUGAU	0.135 ± 0.022	1.9541 ± 0.0016	0.206 ± 0.34	1.99 ± 0.065
UUUGAG	-0.104 ± 0.12	1.735 ± 0.0097	0.41 ± 0.25	1.98 ± 0.033
GAAACA		2.017 ± 0.018		2.04 ± 0.026
GAAACG		1.961 ± 0.0057		2 ± 0.038
GAAACC		2.035 ± 0.013		2.03 ± 0.033
CUUGUG	0.147 ± 0.16	2.021 ± 0.012	-0.331 ± 0.28	2.02 ± 0.039
AUUGGA	0.168 ± 0.094	1.941 ± 0.0048	0.119 ± 0.29	2.01 ± 0.038
UUUCAG	0.263 ± 0.0041	1.916 ± 0.013	-0.0672 ± 0.0029	2.011 ± 0.02
UUUUAG	0.393 ± 0.03	1.836 ± 0.0045	0.488 ± 0.26	1.97 ± 0.051
UUUUAC	0.482 ± 0.098	1.975 ± 0.002	0.507 ± 0.18	1.97 ± 0.04
GUUGGA	0.594 ± 0.3	1.977 ± 0.013	0.154 ± 0.35	2.02 ± 0.04
GUUGGU	0.346 ± 0.21	1.98 ± 0.027	0.126 ± 0.09	2.02 ± 0.029
AUUGUG	0.281 ± 0.041	1.8 ± 0.0029	0.524 ± 0.1	1.99 ± 0.035
